Reference: paper PMC5976931

Biological target: B7-1 (mouse (endogenous in mouse podocytes)) (UniProt Q00609)
UniProt Q00609, sequence (Q00609 38-306): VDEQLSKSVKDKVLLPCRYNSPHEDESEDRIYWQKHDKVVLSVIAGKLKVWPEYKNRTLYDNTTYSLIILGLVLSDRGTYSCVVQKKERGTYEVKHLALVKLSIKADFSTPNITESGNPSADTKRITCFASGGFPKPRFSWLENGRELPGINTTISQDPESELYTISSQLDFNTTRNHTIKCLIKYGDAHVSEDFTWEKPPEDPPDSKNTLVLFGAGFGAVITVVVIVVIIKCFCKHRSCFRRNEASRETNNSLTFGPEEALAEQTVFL

late apoptosis rate of LPS-treated podocytes cocultured with γδT cells (Group D), Annexin-PI, 48 hours: 10.2% | late apoptosis rate of LPS-treated podocytes cocultured with γδT cells and treated with the CD28/B7-1 blocker CTLA4-Ig, 100 μg/ml (Group E), Annexin-PI, 48 hours: 6.43% | phosphor-SRC immunofluorescence intensity in LPS-treated podocytes cocultured with γδT cells (Group D): 142 | phosphor-SRC immunofluorescence intensity in LPS-treated podocytes cocultured with γδT cells and treated with the CD28/B7-1 blocker CTLA4-Ig, 100 μg/ml (Group E): 24
Substance: CD28 (from UniProt P31041 20-218) (receptor)
